Tests used:
SMYD2-F184A (human) [1] = target: SMYD2-F184A (human) (UniProt Q9NRG4); assay: ELISA; inhibition: SMYD2 proteins pre-incubated with varying concentrations of the PARP1 peptide, then added to wells coated with PARP1(518-1014), H3 or H4; four-parameter logistic fit
SMYD2-F184A (human) [2] = target: SMYD2-F184A (human) (UniProt Q9NRG4); assay: ITC; NanoITC SV, 27°C, 25 mM Tris pH 7.5, 50 mM NaCl; 40 μM SMYD2 in the cell, 631 μM PARP1 peptide in the syringe, 16 injections of 15 μL; one-site, two-site and binding polynomial models

Sequence of SMYD2-F184A (human) (Q9NRG4 whole entry F184A): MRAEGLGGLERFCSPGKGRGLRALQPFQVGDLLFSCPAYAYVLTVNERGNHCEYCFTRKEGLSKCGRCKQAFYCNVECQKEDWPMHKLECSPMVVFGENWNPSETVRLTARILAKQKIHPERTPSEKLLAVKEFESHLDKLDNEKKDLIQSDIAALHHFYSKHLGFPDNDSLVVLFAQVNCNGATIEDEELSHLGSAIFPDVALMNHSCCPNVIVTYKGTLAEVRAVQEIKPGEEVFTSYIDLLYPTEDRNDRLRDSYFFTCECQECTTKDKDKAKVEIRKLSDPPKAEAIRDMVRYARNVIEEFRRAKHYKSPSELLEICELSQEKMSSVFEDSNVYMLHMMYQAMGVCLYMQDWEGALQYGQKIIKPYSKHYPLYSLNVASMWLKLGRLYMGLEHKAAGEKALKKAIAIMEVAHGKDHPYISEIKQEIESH

IC50 (SMYD2-F184A (human) [1]): 153 nM | stoichiometry N (SMYD2-F184A (human) [2]): 1
Substance: PARP1 peptide (13-residue synthetic peptide, human PARP1 residues 522-534)
